Ends that are not written are not given here. * marks the point of attachment. Biotin = O=C1N[C@H]2[C@H](CS[C@H]2CCCCC(=O)*)N1
What was measured:
Assay in all cases: peptide or protein array; E. coli proteome chip: purified His-tagged proteins printed in duplicate on Fullmoon slides, blocked with 1% BSA; 10 nM N-terminal biotinylated LfcinB with 1% BSA, room temperature, 1 h; detected with DyLight 649-labeled streptavidin, ratio to DyLight 549-labeled anti-His antibody; ProCAT normalisation, local cut-off; triplicate chips
Conditions in all cases: both partners purified
AtpH = target: T1, AtpH (E. coli K-12, UniProt P0ABA4 1-177)
T1 construct: AtpH, E. coli K-12
T1 sequence (P0ABA4 whole entry): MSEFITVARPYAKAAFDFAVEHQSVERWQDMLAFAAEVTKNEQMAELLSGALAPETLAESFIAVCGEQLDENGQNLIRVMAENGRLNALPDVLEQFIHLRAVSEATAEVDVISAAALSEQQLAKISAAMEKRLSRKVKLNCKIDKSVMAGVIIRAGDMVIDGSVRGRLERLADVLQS

GlpK = target: T2, GlpK (E. coli K-12, UniProt P0A6F3 1-502)
T2 construct: GlpK, E. coli K-12
T2 sequence (P0A6F3 whole entry): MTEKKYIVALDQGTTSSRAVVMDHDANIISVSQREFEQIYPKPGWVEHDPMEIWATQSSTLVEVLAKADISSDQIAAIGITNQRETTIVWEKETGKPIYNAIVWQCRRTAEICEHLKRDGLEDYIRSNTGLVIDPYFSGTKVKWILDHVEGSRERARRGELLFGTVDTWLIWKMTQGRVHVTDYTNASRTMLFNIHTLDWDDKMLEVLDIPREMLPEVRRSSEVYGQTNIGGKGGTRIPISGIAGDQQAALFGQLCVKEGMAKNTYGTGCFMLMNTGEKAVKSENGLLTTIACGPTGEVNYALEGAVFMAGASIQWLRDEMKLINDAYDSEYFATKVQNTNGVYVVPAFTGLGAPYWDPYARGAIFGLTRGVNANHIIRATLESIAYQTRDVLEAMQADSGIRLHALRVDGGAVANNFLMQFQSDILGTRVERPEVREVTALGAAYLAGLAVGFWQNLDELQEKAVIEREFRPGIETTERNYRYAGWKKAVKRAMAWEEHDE

YqhC = target: T3, YqhC (E. coli K-12, UniProt Q46855 1-318)
T3 construct: YqhC, E. coli K-12
T3 sequence (looked up): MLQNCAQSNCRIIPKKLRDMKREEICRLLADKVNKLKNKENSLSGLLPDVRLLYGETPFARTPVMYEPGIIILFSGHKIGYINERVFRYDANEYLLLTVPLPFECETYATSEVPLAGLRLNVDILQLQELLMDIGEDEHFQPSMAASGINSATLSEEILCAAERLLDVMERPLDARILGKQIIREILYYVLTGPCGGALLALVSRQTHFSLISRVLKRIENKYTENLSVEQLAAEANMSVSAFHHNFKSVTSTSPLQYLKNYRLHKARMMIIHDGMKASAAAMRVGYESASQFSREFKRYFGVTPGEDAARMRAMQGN

YheH = target: T4, YheH (E. coli K-12, UniProt P45760 7-125)
T4 construct: YheH, E. coli K-12
T4 sequence (looked up): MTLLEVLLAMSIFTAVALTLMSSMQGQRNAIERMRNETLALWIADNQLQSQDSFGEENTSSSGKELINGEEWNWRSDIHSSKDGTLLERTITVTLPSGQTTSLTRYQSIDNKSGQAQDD

YqiA = target: T5, YqiA (E. coli K-12, UniProt P0A8Z7 1-193)
T5 construct: YqiA, E. coli K-12
T5 sequence (P0A8Z7 whole entry): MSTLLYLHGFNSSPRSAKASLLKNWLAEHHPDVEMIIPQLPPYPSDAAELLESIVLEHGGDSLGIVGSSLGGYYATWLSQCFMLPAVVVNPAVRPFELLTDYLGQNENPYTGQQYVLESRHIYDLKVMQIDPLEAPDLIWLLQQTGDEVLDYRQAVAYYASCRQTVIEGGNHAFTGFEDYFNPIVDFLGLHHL

Adi = target: T6, Adi (E. coli K-12, UniProt P28629 1-755)
T6 construct: Adi, E. coli K-12
T6 sequence (looked up): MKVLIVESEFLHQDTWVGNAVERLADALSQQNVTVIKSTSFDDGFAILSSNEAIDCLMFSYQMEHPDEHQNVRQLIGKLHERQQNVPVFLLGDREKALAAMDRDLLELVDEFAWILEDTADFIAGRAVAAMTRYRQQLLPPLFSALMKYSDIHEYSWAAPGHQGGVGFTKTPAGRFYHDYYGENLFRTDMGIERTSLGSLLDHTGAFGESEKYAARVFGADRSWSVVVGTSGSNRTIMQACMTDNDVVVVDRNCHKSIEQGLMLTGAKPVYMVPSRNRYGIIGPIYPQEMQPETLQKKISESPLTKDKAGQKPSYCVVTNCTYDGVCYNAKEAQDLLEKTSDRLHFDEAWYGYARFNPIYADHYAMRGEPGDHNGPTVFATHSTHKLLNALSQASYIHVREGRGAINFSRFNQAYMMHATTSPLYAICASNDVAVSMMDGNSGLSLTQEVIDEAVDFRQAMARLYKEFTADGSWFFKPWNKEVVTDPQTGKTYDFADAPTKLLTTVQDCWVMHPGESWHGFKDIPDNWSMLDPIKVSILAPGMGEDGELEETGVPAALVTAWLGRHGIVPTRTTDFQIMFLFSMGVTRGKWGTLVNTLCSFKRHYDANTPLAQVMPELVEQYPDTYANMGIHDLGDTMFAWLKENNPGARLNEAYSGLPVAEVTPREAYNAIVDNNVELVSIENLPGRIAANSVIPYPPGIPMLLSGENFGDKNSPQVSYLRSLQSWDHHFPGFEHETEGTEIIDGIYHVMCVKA

YhiW = target: T7, YhiW (E. coli K-12, UniProt P63201 1-242)
T7 construct: YhiW, E. coli K-12
T7 sequence (looked up): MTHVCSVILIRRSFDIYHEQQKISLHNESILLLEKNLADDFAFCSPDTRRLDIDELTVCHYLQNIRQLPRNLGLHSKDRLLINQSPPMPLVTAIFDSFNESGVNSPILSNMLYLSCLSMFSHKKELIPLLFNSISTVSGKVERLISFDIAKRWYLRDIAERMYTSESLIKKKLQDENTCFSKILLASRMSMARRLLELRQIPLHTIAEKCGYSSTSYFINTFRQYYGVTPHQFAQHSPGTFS

Measured: binding result

B1: N-terminal biotinylated Lactoferricin B (peptide, UniProt P24627 36-60, looked up)
peptide: Biotin-FKCRRWQWRMKKLGAPSITCVRRAF
modifications: ends and bridges not checked
notes: lactoferricin B (LfcinB), cationic antimicrobial peptide of 25 amino acids; also called biotinylated LfcinB; biotin-labeled LfcinB; source: bought: Kelowna Inc
binds: all assays above
